Measurements reported in patent publication US20260193348A1 (ANTENGENE BIOLOGICS, published 2026).

Key:
[1] = biological target: T1, GPRC5D on multiple myeloma cells (human, UniProt Q9NZD1 1-345); test: FACS on MM.1S cells
T1 construct: whole, on cells; Endogenous GPRC5D on multiple myeloma cell lines; also called G-protein coupled receptor family C group 5 member D; MM.1S, MOLP-8, L363, RPMI8226 cells

[2] = biological target: T2, CD3 on T cells / Jurkat cells (human, UniProt P07766 23-207; P04234 22-171; P09693 23-182); test: FACS on Jurkat cells
T2 construct: whole, on cells; Native CD3 complex on CD3+ T cells isolated from normal donors or on Jurkat cells; also called human CD3; CD3+ T cells
T2 sequence (P07766 23-207, chain 1 of 3): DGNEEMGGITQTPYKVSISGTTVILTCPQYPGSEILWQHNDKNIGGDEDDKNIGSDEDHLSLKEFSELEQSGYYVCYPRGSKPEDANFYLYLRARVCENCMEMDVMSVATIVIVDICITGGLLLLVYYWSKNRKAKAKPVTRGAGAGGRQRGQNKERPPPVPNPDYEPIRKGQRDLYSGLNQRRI
T2 sequence (P04234 22-171, chain 2 of 3): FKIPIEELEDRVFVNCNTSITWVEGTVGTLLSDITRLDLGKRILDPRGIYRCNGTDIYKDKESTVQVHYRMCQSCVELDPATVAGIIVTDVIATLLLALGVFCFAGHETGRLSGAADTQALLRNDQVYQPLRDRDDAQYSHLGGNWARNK
T2 sequence (P09693 23-182, chain 3 of 3): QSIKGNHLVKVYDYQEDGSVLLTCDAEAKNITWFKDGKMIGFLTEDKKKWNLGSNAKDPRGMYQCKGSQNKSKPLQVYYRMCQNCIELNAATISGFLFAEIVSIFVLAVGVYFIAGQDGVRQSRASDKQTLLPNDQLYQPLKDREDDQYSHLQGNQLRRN

T1 sequence (Q9NZD1 whole entry): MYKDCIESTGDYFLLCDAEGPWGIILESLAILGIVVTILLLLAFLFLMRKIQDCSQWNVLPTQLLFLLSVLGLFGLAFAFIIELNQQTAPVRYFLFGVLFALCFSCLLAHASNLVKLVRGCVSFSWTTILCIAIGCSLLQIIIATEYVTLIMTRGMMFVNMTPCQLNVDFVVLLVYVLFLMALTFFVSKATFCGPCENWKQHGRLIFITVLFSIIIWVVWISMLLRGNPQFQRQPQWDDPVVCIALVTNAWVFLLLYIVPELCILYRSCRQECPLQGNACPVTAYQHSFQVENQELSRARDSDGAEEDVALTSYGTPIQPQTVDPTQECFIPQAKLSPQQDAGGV

Row | Binder | binding result [1] | binding result [2]
1 | Bis-40E9-L2H14 (bispecific antibody, L234A/L235A) VH: EVQLVQSGAEVKKPGASVKVSCKASGYTFTSYVIHWVRQAPGQGLEWMGYFNPYNDGTKYNEEFKGRVTLTSDKSTSTAYMELRSLRSDDTAVYYCARGGVRRYFDVWGQGTTVTVSS VL: DIQMTQSPSSLSASVGDRVTITCRASQDIGSNLNWLQQKPGKAIKRLIYATFGLDSGVPSRFSGSRSGTDFTLTISSLQPEDFATYYCQQYASFPYTFGGGTKVEIK scFv: EVQLVQSGAEVKKPGSSVKVSCKASGYTFSSYVIHWVRQAPGQCLEWMGYINPYNDVIKYNEKFKGRVTLTSDKSTSTAYMELSSLRSEDTAVYYCARESYYSYDGFAYWGQGTLVTVSSGGGGSGGGGSGGGGSGGGGSEIVLTQSPDFQSVTPKEKVTITCSASSSVSYMHWYQQKPDQSPKRLIYDTSKLASGVPSRFSGSGSGTDFTLTINSLEAEDAATYYCQQWSSNPPTFGCGTKVEIK | binds | binds
2 | Bis-108+ch147 (bispecific antibody, V domains shown, Fab-scFv-Fab (2+1): two humanized anti-GPRC5D Fabs (first VH/VL) and one anti-CD3 scFv (second VH/VL, parental clone 147E11E2)) VH 1: EVQLVQSGAEVKKPGASVKVSCKASGYTFTSYVIHWVRQAPGQGLEWMGYFNPYNDGTKYNEEFKGRVTLTSDKSTSTAYMELRSLRSDDTAVYYCARGGVRRYFDVWGQGTTVTVSS VL 1: DIQMTQSPSSLSASVGDRVTITCRASQDIGSNLNWLQQKPGKAIKRLIYATFGLDSGVPSRFSGSRSGTDFTLTISSLQPEDFATYYCQQYASFPYTFGGGTKVEIK VH 2: QVQLQQPGTELVKPGTSVKLSCKASGYTFTSYWMHWVKQRPGQCLEWIGNINPSNGATNYNEKFKSKATLTVDKSSSTAYMQLSSLTSEDSAVYYCARDRSSQYYFDYWGQGTTLTVSS VL 2: DIVMSQSPSSLAVSAGEKVTMSCKSSQSLLNSRSRKNYLAWYQQKPGQSPKLLIYWASTRESGVPDRFTGSGSGTDFTLTISSVQAEDLAVYYCTQSYTLRTFGCGTKLEIK | binds | binds
3 | Bis-108+147-S32T.L (bispecific antibody, V domains shown, Fab-scFv-Fab (2+1): first VH/VL = anti-GPRC5D Fabs, second VH/VL = anti-CD3 scFv) VH 1: EVQLVQSGAEVKKPGASVKVSCKASGYTFTSYVIHWVRQAPGQGLEWMGYFNPYNDGTKYNEEFKGRVTLTSDKSTSTAYMELRSLRSDDTAVYYCARGGVRRYFDVWGQGTTVTVSS VL 1: DIQMTQSPSSLSASVGDRVTITCRASQDIGSNLNWLQQKPGKAIKRLIYATFGLDSGVPSRFSGSRSGTDFTLTISSLQPEDFATYYCQQYASFPYTFGGGTKVEIK VH 2: EVQLVQSGAEVKKPGSSVKVSCKASGYTFTSYWMHWVRQAPGQCLEWMGNINPSSGATNYNEKFKSRVTLTVDKSTSTAYMELSSLRSEDTAVYYCARDRSSQYYFDYWGQGTTVTVSS VL 2: DIVMTQSPDSLAVSLGERATINCKSSQSLLNTRSRKNYLAWYQQKPGQPPKLLIYWASTRESGVPDRFSGSGSGTDFTLTISSLQAEDVAVYYCTQSYTLRTFGCGTKVEIK | binds | binds
4 | Bis-108+147-K36R.L (bispecific antibody, V domains shown, Fab-scFv-Fab (2+1): first VH/VL = anti-GPRC5D Fabs, second VH/VL = anti-CD3 scFv) VH 1: EVQLVQSGAEVKKPGASVKVSCKASGYTFTSYVIHWVRQAPGQGLEWMGYFNPYNDGTKYNEEFKGRVTLTSDKSTSTAYMELRSLRSDDTAVYYCARGGVRRYFDVWGQGTTVTVSS VL 1: DIQMTQSPSSLSASVGDRVTITCRASQDIGSNLNWLQQKPGKAIKRLIYATFGLDSGVPSRFSGSRSGTDFTLTISSLQPEDFATYYCQQYASFPYTFGGGTKVEIK VH 2: EVQLVQSGAEVKKPGSSVKVSCKASGYTFTSYWMHWVRQAPGQCLEWMGNINPSSGATNYNEKFKSRVTLTVDKSTSTAYMELSSLRSEDTAVYYCARDRSSQYYFDYWGQGTTVTVSS VL 2: DIVMTQSPDSLAVSLGERATINCKSSQSLLNSRSRRNYLAWYQQKPGQPPKLLIYWASTRESGVPDRFSGSGSGTDFTLTISSLQAEDVAVYYCTQSYTLRTFGCGTKVEIK | binds | binds
5 | Bis-108+147-N31Y.L (bispecific antibody, V domains shown, Fab-scFv-Fab (2+1): first VH/VL = anti-GPRC5D Fabs, second VH/VL = anti-CD3 scFv) VH 1: EVQLVQSGAEVKKPGASVKVSCKASGYTFTSYVIHWVRQAPGQGLEWMGYFNPYNDGTKYNEEFKGRVTLTSDKSTSTAYMELRSLRSDDTAVYYCARGGVRRYFDVWGQGTTVTVSS VL 1: DIQMTQSPSSLSASVGDRVTITCRASQDIGSNLNWLQQKPGKAIKRLIYATFGLDSGVPSRFSGSRSGTDFTLTISSLQPEDFATYYCQQYASFPYTFGGGTKVEIK VH 2: EVQLVQSGAEVKKPGSSVKVSCKASGYTFTSYWMHWVRQAPGQCLEWMGNINPSSGATNYNEKFKSRVTLTVDKSTSTAYMELSSLRSEDTAVYYCARDRSSQYYFDYWGQGTTVTVSS VL 2: DIVMTQSPDSLAVSLGERATINCKSSQSLLYSRSRKNYLAWYQQKPGQPPKLLIYWASTRESGVPDRFSGSGSGTDFTLTISSLQAEDVAVYYCTQSYTLRTFGCGTKVEIK | binds | binds
6 | Bis-108+147-N37K.L (bispecific antibody, V domains shown, Fab-scFv-Fab (2+1): first VH/VL = anti-GPRC5D Fabs, second VH/VL = anti-CD3 scFv) VH 1: EVQLVQSGAEVKKPGASVKVSCKASGYTFTSYVIHWVRQAPGQGLEWMGYFNPYNDGTKYNEEFKGRVTLTSDKSTSTAYMELRSLRSDDTAVYYCARGGVRRYFDVWGQGTTVTVSS VL 1: DIQMTQSPSSLSASVGDRVTITCRASQDIGSNLNWLQQKPGKAIKRLIYATFGLDSGVPSRFSGSRSGTDFTLTISSLQPEDFATYYCQQYASFPYTFGGGTKVEIK VH 2: EVQLVQSGAEVKKPGSSVKVSCKASGYTFTSYWMHWVRQAPGQCLEWMGNINPSSGATNYNEKFKSRVTLTVDKSTSTAYMELSSLRSEDTAVYYCARDRSSQYYFDYWGQGTTVTVSS VL 2: DIVMTQSPDSLAVSLGERATINCKSSQSLLNSRSRKKYLAWYQQKPGQPPKLLIYWASTRESGVPDRFSGSGSGTDFTLTISSLQAEDVAVYYCTQSYTLRTFGCGTKVEIK | binds | binds
7 | Bis-108+147-R33A.L (bispecific antibody, V domains shown, Fab-scFv-Fab (2+1): first VH/VL = anti-GPRC5D Fabs, second VH/VL = anti-CD3 scFv) VH 1: EVQLVQSGAEVKKPGASVKVSCKASGYTFTSYVIHWVRQAPGQGLEWMGYFNPYNDGTKYNEEFKGRVTLTSDKSTSTAYMELRSLRSDDTAVYYCARGGVRRYFDVWGQGTTVTVSS VL 1: DIQMTQSPSSLSASVGDRVTITCRASQDIGSNLNWLQQKPGKAIKRLIYATFGLDSGVPSRFSGSRSGTDFTLTISSLQPEDFATYYCQQYASFPYTFGGGTKVEIK VH 2: EVQLVQSGAEVKKPGSSVKVSCKASGYTFTSYWMHWVRQAPGQCLEWMGNINPSSGATNYNEKFKSRVTLTVDKSTSTAYMELSSLRSEDTAVYYCARDRSSQYYFDYWGQGTTVTVSS VL 2: DIVMTQSPDSLAVSLGERATINCKSSQSLLNSASRKNYLAWYQQKPGQPPKLLIYWASTRESGVPDRFSGSGSGTDFTLTISSLQAEDVAVYYCTQSYTLRTFGCGTKVEIK | binds | binds
8 | Bis-108+147-R35K.L (bispecific antibody, V domains shown, Fab-scFv-Fab (2+1): first VH/VL = anti-GPRC5D Fabs, second VH/VL = anti-CD3 scFv) VH 1: EVQLVQSGAEVKKPGASVKVSCKASGYTFTSYVIHWVRQAPGQGLEWMGYFNPYNDGTKYNEEFKGRVTLTSDKSTSTAYMELRSLRSDDTAVYYCARGGVRRYFDVWGQGTTVTVSS VL 1: DIQMTQSPSSLSASVGDRVTITCRASQDIGSNLNWLQQKPGKAIKRLIYATFGLDSGVPSRFSGSRSGTDFTLTISSLQPEDFATYYCQQYASFPYTFGGGTKVEIK VH 2: EVQLVQSGAEVKKPGSSVKVSCKASGYTFTSYWMHWVRQAPGQCLEWMGNINPSSGATNYNEKFKSRVTLTVDKSTSTAYMELSSLRSEDTAVYYCARDRSSQYYFDYWGQGTTVTVSS VL 2: DIVMTQSPDSLAVSLGERATINCKSSQSLLNSRSKKNYLAWYQQKPGQPPKLLIYWASTRESGVPDRFSGSGSGTDFTLTISSLQAEDVAVYYCTQSYTLRTFGCGTKVEIK | binds | binds
9 | Bis-108+147-R35S.L (bispecific antibody, V domains shown, Fab-scFv-Fab (2+1): first VH/VL = anti-GPRC5D Fabs, second VH/VL = anti-CD3 scFv) VH 1: EVQLVQSGAEVKKPGASVKVSCKASGYTFTSYVIHWVRQAPGQGLEWMGYFNPYNDGTKYNEEFKGRVTLTSDKSTSTAYMELRSLRSDDTAVYYCARGGVRRYFDVWGQGTTVTVSS VL 1: DIQMTQSPSSLSASVGDRVTITCRASQDIGSNLNWLQQKPGKAIKRLIYATFGLDSGVPSRFSGSRSGTDFTLTISSLQPEDFATYYCQQYASFPYTFGGGTKVEIK VH 2: EVQLVQSGAEVKKPGSSVKVSCKASGYTFTSYWMHWVRQAPGQCLEWMGNINPSSGATNYNEKFKSRVTLTVDKSTSTAYMELSSLRSEDTAVYYCARDRSSQYYFDYWGQGTTVTVSS VL 2: DIVMTQSPDSLAVSLGERATINCKSSQSLLNSRSSKNYLAWYQQKPGQPPKLLIYWASTRESGVPDRFSGSGSGTDFTLTISSLQAEDVAVYYCTQSYTLRTFGCGTKVEIK | binds | binds
10 | Bis-108+147-R100Q.H (bispecific antibody, V domains shown, Fab-scFv-Fab (2+1): first VH/VL = anti-GPRC5D Fabs, second VH/VL = anti-CD3 scFv) VH 1: EVQLVQSGAEVKKPGASVKVSCKASGYTFTSYVIHWVRQAPGQGLEWMGYFNPYNDGTKYNEEFKGRVTLTSDKSTSTAYMELRSLRSDDTAVYYCARGGVRRYFDVWGQGTTVTVSS VL 1: DIQMTQSPSSLSASVGDRVTITCRASQDIGSNLNWLQQKPGKAIKRLIYATFGLDSGVPSRFSGSRSGTDFTLTISSLQPEDFATYYCQQYASFPYTFGGGTKVEIK VH 2: EVQLVQSGAEVKKPGSSVKVSCKASGYTFTSYWMHWVRQAPGQCLEWMGNINPSSGATNYNEKFKSRVTLTVDKSTSTAYMELSSLRSEDTAVYYCARDQSSQYYFDYWGQGTTVTVSS VL 2: DIVMTQSPDSLAVSLGERATINCKSSQSLLNSRSRKNYLAWYQQKPGQPPKLLIYWASTRESGVPDRFSGSGSGTDFTLTISSLQAEDVAVYYCTQSYTLRTFGCGTKVEIK | binds | binds
11 | Bis-108+147-S31R.H (bispecific antibody, V domains shown, Fab-scFv-Fab (2+1): first VH/VL = anti-GPRC5D Fabs, second VH/VL = anti-CD3 scFv) VH 1: EVQLVQSGAEVKKPGASVKVSCKASGYTFTSYVIHWVRQAPGQGLEWMGYFNPYNDGTKYNEEFKGRVTLTSDKSTSTAYMELRSLRSDDTAVYYCARGGVRRYFDVWGQGTTVTVSS VL 1: DIQMTQSPSSLSASVGDRVTITCRASQDIGSNLNWLQQKPGKAIKRLIYATFGLDSGVPSRFSGSRSGTDFTLTISSLQPEDFATYYCQQYASFPYTFGGGTKVEIK VH 2: EVQLVQSGAEVKKPGSSVKVSCKASGYTFTRYWMHWVRQAPGQCLEWMGNINPSSGATNYNEKFKSRVTLTVDKSTSTAYMELSSLRSEDTAVYYCARDRSSQYYFDYWGQGTTVTVSS VL 2: DIVMTQSPDSLAVSLGERATINCKSSQSLLNSRSRKNYLAWYQQKPGQPPKLLIYWASTRESGVPDRFSGSGSGTDFTLTISSLQAEDVAVYYCTQSYTLRTFGCGTKVEIK | binds | binds
